For 25 sequences, protein stability index results are on record in the supplement of paper PMC9732359.

The nature of this data set: protein stability index of a GFP-peptide fusion (yeast GPS) (PSI 1-4); higher = more stable; sorted into four equal gates, so the index is relative within each strain. The essentials: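 Plasmids in a pooled yeast library fused tiled 17-residue yeast protein peptides downstream of GFP and also expressed Cherry. Mid-log cultures grown without leucine were sorted into four equal gates by GFP/Cherry fluorescence ratio. Each gate's plasmids were PCR-amplified and Illumina-sequenced, and reads were matched to strains by barcodes. The protein stability index is derived by multiplying each gate's read frequency by its gate number and summing the results.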

± gives the uncertainty stated by the source.

For the sequence QIFVRGSQIKFIVVPDL [SMD3], the protein stability index is, setting by setting: (doa10∆) 1.8 ± 0.071; (pdr5∆) 2.35 ± 0.06; (san1∆) 2.05 ± 0.064; (ubr1∆) 2.02 ± 0.066.
The matching figures for PFNQGSKQDVEALIEFI [FAS2]: 3.08 ± 0.073, 3.15 ± 0.076, 3.01 ± 0.079 and 3.08 ± 0.061.
The matching figures for KREEKAMTIYWDDHTKK [CDC53]: 2.5 ± 0.076, 2.2 ± 0.068, 3.45 ± 0.072 and 2.25 ± 0.051.
As to VYKFMSLAKSSALWSSR [ECM29], the protein stability index by setting is: (pdr5∆) 1.97 ± 0.16; (san1∆) 1.39 ± 0.2; (ubr1∆) 1.74 ± 0.29.
For the sequence ADNKEDVKKPFSFGTSQ [YLR335W/NUP2], the protein stability index came to 3.42 ± 0.1 (doa10∆), 3.09 ± 0.096 (pdr5∆), 2.75 ± 0.16 (san1∆) and 3.13 ± 0.099 (ubr1∆).
The matching figures for KDFLKAVDKVISGYKKF [RPT1]: 3.21 ± 0.074, 3.38 ± 0.09, 3.12 ± 0.092 and 3.33 ± 0.051.
The matching figures for DLSISALLGDKIYNFGE [RPN9]: 3.08 ± 0.068, 3.11 ± 0.065, 3.15 ± 0.061 and 3.12 ± 0.091.
The matching figures for KKQVHVYRFVTENAIEE [ISW2]: 1.68 ± 0.07, 1.77 ± 0.075, 1.87 ± 0.12 and 1.91 ± 0.045.
With LLTNDESAFENLMGNRN [SNF12], the protein stability index reads like this: (doa10∆) 2.96 ± 0.14; (pdr5∆) 2.7 ± 0.12; (san1∆) 3 ± 0.19; (ubr1∆) 3.14 ± 0.078.
The matching figures for SPRFNVKIGDIEKWTAN [RPS22A]: 3.06 ± 0.082, 3.23 ± 0.075, 2.85 ± 0.065 and 3.34 ± 0.073.
The matching figures for NVGTNTYRLGEWSKISV [POP1]: 1.97 ± 0.25, 2.34 ± 0.12, 2.69 ± 0.097 and 3.17 ± 0.12.
The matching figures for KPALKVSKEGLYQLVDI [YMR129W/POM152]: 3.18 ± 0.13, 3.1 ± 0.12, 3.14 ± 0.074 and 3.02 ± 0.082.
Consider KKQPSILVGGTLKDYQI [SNF2], for which the protein stability index amounted to 2.31 ± 0.11 (doa10∆), 2.71 ± 0.099 (pdr5∆), 2.35 ± 0.11 (san1∆) and 2.47 ± 0.083 (ubr1∆).
The matching figures for NRGVKLEIVYGYALRDV [RPP1]: 2.54 ± 0.084, 2.64 ± 0.077, 2.46 ± 0.092 and 3.04 ± 0.065.
As to LDERGHEKIEDEDEDND [RPN4], the protein stability index is, setting by setting: (doa10∆) 3.37 ± 0.25; (pdr5∆) 3.44 ± 0.15; (san1∆) 3.48 ± 0.13; (ubr1∆) 3.32 ± 0.17.
For the sequence YVLYAKIVVLSRTGPVF [RRP43], the protein stability index reads like this: (doa10∆) 1.29 ± 0.097; (pdr5∆) 1.15 ± 0.077; (san1∆) 1.11 ± 0.16; (ubr1∆) 1.19 ± 0.06.
The matching figures for LGTLVNQKTSAVAALTE [RPL8A]: 2.37 ± 0.095, 2.45 ± 0.082, 2.4 ± 0.15 and 2.25 ± 0.11.
Take VYFGDENKVMLPRCSKE [RRI2]: the protein stability index was found to be 3.24 ± 0.091 (doa10∆), 3.37 ± 0.089 (pdr5∆), 3.11 ± 0.074 (san1∆) and 3.13 ± 0.063 (ubr1∆).
The matching figures for DGTSTEKTFLHLPCTIE [RPN8]: 2.7 ± 0.1, 1.78 ± 0.055, 2.1 ± 0.065 and 1.41 ± 0.044.
Turning to EKIDGMDVDSVKTTLVS [RPC82], the protein stability index is, setting by setting: (doa10∆) 2.54 ± 0.11; (pdr5∆) 2.78 ± 0.12; (san1∆) 2.73 ± 0.11; (ubr1∆) 2.1 ± 0.29.
The matching figures for AFGVSVAFLDNDLGKFI [RPN7]: 3.17 ± 0.086, 3.16 ± 0.1, 3.07 ± 0.081 and 3.28 ± 0.057.
The matching figures for SSDAFEVDVCDKCGLMG [RET1]: 2.38 ± 0.18, 2.59 ± 0.11, 2.33 ± 0.19 and 2.12 ± 0.11.
The matching figures for PPPYVKFFTQSNLEKLP [MED7]: 2.25 ± 0.036, 2.29 ± 0.04, 2.41 ± 0.049 and 2.49 ± 0.027.
MINGRKLIKFETRNEDD [FAS1]: the protein stability index was 2.9 ± 0.071 (doa10∆), 2.81 ± 0.068 (pdr5∆), 3.07 ± 0.047 (san1∆) and 2.81 ± 0.044 (ubr1∆).
With LSILKGDYSQATVLSRK [RPN5], the protein stability index (doa10∆) came out at 3.08 ± 0.07, the protein stability index (pdr5∆) came out at 3.02 ± 0.06, the protein stability index (san1∆) came to 3.03 ± 0.075 and the protein stability index (ubr1∆) was found to be 2.72 ± 0.056.
